According to publication PMC10229537, “A cryo-EM structure of KTF1-bound polymerase V transcription elongation complex” (Nature Communications, 2023):

T1: NRP(D/E)2 (Arabidopsis thaliana (endogenous in T87 …, UniProt Q9LK40 1-1172))
T1 construct: NRP(D/E)2, second largest subunit shared by Pol IV and Pol V, Arabidopsis thaliana; also called NRP(D/E)2 subunit; source: endogenous, A. thaliana T87 cells, co-purified with 3xFLAG-10xHis-NRPE1
T1 sequence (looked up): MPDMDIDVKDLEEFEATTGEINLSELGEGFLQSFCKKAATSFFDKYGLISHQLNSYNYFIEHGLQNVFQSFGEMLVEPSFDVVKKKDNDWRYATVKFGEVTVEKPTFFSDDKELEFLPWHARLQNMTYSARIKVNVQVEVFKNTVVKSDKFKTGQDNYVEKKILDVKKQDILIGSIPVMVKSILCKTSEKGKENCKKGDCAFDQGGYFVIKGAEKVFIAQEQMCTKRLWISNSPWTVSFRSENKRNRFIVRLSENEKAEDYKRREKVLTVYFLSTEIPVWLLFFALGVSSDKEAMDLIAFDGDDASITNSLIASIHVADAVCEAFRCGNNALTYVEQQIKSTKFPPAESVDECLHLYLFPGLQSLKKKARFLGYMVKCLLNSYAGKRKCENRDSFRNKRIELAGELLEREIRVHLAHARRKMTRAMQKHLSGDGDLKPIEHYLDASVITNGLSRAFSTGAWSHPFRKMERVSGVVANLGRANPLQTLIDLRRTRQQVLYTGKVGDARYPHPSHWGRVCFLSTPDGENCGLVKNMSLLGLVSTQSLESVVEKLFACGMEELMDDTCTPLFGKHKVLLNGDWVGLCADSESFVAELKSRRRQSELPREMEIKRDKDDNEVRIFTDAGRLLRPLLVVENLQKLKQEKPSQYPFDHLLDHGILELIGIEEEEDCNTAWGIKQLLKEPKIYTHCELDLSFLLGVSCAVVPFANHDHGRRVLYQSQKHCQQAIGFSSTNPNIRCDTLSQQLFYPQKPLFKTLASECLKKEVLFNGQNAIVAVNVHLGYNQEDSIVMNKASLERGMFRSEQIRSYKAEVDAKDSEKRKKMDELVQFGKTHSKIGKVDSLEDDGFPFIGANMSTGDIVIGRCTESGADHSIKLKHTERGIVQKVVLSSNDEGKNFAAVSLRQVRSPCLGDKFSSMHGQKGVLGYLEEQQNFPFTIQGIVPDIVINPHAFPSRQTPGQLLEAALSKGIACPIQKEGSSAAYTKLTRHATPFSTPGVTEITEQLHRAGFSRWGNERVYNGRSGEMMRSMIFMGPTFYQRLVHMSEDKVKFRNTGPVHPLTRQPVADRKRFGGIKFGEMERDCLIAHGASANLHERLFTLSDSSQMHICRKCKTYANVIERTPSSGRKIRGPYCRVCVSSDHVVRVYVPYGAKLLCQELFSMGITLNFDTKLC

B1: KOW domain-containing transcription factor 1 (KTF1), residues 1-712, the conserved N-terminal domain (domain or fragment, Arabidopsis thaliana, UniProt F4JW79 1-712, looked up)
chain: MDRKGKGKQVAGSDSYSGGQKRKNSVEFRDEGLRIKKRKNPEVLQFFEESAEVGYYGGSSDEDDDGLGFLNDMEDEPEVEESSKAGKGEKGKSSFVFPKEEDLNEEEFDRIMEERYKPGSGFLRYADDDIKDAIEMDALAPTSKDPPIWKVKCAIGRERRSVFCLMHKFVELRKIGTKLEIISVFSVDHVKGFIFIEADKEHDVLEACKSLVGIYATRMVLLPKAETPNLLTVQKKTKKVSEGTWARVKNGKYKGDLAQIVAVSDTRNKALIKLIPRIDIQALTQKYGGGVTVQKGQTPAPRLISSSELEEFRPLIQVRRDRDTGITFEHLDSLMLKDGYLYKKVSLDSISSWGVIPTKDELLKFTPVDRKETGDVEWISEIYGEERKKKILPTCREGGKGEGSGGGKGEGSGGGKGEGSRGGKGEGSSDFKSESSYELYNLVCFSRKDFGLIVGVDDKGDGYKVLKEGIDGPVVVTVGKKEMQNGPFDSKFTALDLNKKQISVNDVVKISKGPSEGKQGVVRQVYRGIIFLYDESEEENGGYFCCKSQSCEKVKLFTEESNEKTGGFDGTAFEDFVSSPKSPLSPEKEWQPRERYNSSNQGDIGSTYSIGQKLRIRVGPLKGYLCRVIALRYSDVTVKLDSQHKIFTVKSEHLAEVRDRNTVLSTSGDAGTGSFQPFGMLGTESSTGDWAIGAGTSSEGGNWNIGGPSTDS
notes: KTF1 (SPT5L), Arabidopsis thaliana, At5g04290, residues 1-712 (NGN, KOW1, KOW4, KOW5; without the C-terminal GW/WG repeats); The modified pETDuet1 vector carries a 6xHis-tagged SUMOstar that was cleaved on the column; Added to Pol V as the heterodimer with SPT4; Only the KOW5 domain is seen in the map; also called SPT5L; truncated KTF1 (1-712)

What was measured:
[1] = target: B1; experiment: cryo-EM structure; Pol V, nucleic-acid scaffold and KTF1/SPT4 heterodimer mixed 1:1.2:3 in 20 mM HEPES pH 7.5, 100 mM NaCl, 5 mM MgCl2, 1 mM DTT; complex taken from Superose 6 Increase; maps at 3.2 Å and 4.3 Å, local maps at 3.0 Å and 3.7 Å; conditions: both partners purified
NRP(D/E)2 = target: T1, NRP(D/E)2; experiment: as above; conditions: both partners purified

binding result [1]	binding result (NRP(D/E)2)	Binder
binds		NRP(B/D/E)3 (natural protein, UniProt Q39211 1-319, looked up, NRP(B/D/E)3, subunit 3 shared by Pol II, IV and V, Arabidopsis thaliana; also called NRPE(B/D/E)3; source: endogenous, A. thaliana T87 cells, co-purified with 3xFLAG-10xHis-NRPE1) MDGATYQRFPKIKIRELKDDYAKFELRETDVSMANALRRVMISEVPTVAIDLVEIEVNSSVLNDEFIAHRLGLIPLTSERAMSMRFSRDCDACDGDGQCEFCSVEFRLSSKCVTDQTLDVTSRDLYSADPTVTPVDFTIDSSVSDSSEHKGIIIVKLRRGQELKLRAIARKGIGKDHAKWSPAATVTFMYEPDIIINEDMMDTLSDEEKIDLIESSPTKVFGMDPVTRQVVVVDPEAYTYDEEVIKKAEAMGKPGLIEISPKDDSFIFTVESTGAVKASQLVLNAIDLLKQKLDAVRLSDDTVEADDQFGELGAHMRGG
	binds	B1
binds		NRP(A/B/C/D/E)12 (natural protein, NRP(A/B/C/D/E)12, subunit 12 shared by Pol I-V, Arabidopsis thaliana; source: endogenous, A. thaliana T87 cells, co-purified with 3xFLAG-10xHis-NRPE1) not shown
